Measured values as given in patent publication US20180289803A1 (Eli Lilly, published 2018).

Molecular target: human PD-L1 (endogenous, in the mixed leukocyte reaction of human CD4 T-cells and monocyte-derived dendritic … (human, UniProt Q9NZQ7 19-290))
Experiment: cell-based or functional assay

B1: Antibody C (bispecific antibody, human IgG1, kappa, lambda, L234A L235A)
heavy 1: not shown
light 1: not shown
heavy 2: not shown
light 2: DIVMTQSPSSLSASVGDGVTITCQASQDIYNYLNWYQQKPGKAPKLLIYYASSIVSGVPSRFSGSGSGTDFTLTISSLQPEDFATYYCQQASSFPPTFGQGTKLEIKRTVAAPSVFIFPPSDEQLKSGTARVGCLLNNFYPREAKVQWKVDNALQSGNSQESVTEQDSKDSTYSLRSALTLSKADYEKHKVYACEVTHQGLSSPVTKSFNRGEC
IFN-γ levels in the mixed leukocyte reaction (MLR) at 4 nM antibody: ~3 fold
IFN-γ levels in the mixed leukocyte reaction (MLR) at 8 nM antibody: ~5 fold
